Patent US20240101684A1 (AIMED BIO, published 2024)

T1: FGFR3 Ig domain II with Fc tag (UniProt P22607 151-244)
T1 construct: domain: FGFR3 Ig domain II; Recombinant domain made in mammalian cells; also called domain No. 2
T1 sequence: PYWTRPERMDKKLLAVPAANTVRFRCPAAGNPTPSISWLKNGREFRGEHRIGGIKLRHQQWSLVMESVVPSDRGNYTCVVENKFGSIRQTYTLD

T2: human FGFR3 IIIb recombinant protein (1264-FR-050, R&D) (human, UniProt P22607-2 23-377)
T2 construct: Bought recombinant antigen; also called rhFGFR3-IIIb; FGFR3-IIIb (Human)
T2 sequence (looked up): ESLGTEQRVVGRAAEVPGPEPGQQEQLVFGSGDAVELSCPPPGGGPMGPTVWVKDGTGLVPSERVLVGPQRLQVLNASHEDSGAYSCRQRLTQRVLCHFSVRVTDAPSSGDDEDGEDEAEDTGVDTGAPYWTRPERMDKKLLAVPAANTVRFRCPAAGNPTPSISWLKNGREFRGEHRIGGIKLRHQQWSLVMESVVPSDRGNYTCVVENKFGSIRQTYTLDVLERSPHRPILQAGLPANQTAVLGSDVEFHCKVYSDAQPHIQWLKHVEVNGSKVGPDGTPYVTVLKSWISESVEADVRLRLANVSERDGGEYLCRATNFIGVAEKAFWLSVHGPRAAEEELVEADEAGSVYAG

T3: Domain#3 (human, UniProt P22607)
T3 construct: single domain fused to human IgG1 Fc; also called FGFR3 Domain 3; FGFR3 Ig domain III with Fc tag
T3 sequence (Fc fusion chain): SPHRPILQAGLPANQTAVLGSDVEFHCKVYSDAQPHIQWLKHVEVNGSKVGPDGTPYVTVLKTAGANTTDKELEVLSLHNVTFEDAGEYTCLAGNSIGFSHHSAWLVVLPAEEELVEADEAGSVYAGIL

T4: monkey FGFR3 recombinant protein (90313-C02H, Sino Biological) (cynomolgus monkey, UniProt A0A2K5V1U5 23-376)
T4 construct: Bought recombinant antigen; also called cynomolgus monkey FGFR3; cyno FGFR3
T4 sequence: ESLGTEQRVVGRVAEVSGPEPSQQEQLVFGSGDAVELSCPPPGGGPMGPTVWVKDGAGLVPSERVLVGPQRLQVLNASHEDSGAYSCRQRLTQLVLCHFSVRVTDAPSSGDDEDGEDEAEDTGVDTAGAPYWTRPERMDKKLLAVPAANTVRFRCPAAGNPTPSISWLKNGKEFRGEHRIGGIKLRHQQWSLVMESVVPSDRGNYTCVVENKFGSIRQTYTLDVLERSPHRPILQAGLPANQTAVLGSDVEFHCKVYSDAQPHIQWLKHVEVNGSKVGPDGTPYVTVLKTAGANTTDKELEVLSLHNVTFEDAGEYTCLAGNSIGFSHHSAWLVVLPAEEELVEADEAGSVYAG

T5: human FGFR3 IIIc recombinant protein (766-FR-050, R&D) (human, UniProt P22607 23-375)
T5 construct: Bought recombinant antigen; also called FGFR3-IIIc (Human)
T5 sequence (looked up): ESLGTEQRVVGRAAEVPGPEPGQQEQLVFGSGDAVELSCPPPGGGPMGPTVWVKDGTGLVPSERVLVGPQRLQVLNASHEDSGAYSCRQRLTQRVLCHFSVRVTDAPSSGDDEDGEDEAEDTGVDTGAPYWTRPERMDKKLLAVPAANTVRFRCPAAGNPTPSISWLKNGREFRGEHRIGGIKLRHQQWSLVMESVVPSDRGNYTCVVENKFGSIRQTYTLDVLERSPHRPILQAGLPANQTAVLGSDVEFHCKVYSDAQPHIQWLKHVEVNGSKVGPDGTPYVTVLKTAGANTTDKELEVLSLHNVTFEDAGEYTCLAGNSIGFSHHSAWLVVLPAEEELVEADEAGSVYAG

T6: FGFR3 recombinant protein (isoform not given) (Homo sapiens (Human), UniProt P22607 23-375, limits assumed)
T6 construct: also called FGFR3 antigen
T6 sequence: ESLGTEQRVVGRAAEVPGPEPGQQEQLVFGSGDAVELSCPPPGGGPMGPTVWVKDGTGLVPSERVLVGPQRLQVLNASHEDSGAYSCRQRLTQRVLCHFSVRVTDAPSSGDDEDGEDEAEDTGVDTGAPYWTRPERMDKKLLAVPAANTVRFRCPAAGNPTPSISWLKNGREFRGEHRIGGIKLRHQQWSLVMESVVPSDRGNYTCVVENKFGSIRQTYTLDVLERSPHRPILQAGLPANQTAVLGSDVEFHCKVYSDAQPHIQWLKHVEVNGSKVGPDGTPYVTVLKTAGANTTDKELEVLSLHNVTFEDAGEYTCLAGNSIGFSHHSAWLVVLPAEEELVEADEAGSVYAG


Assays:
[1] = target: T1, FGFR3 Ig domain II with Fc tag; experiment: FGFR3 Domain ELISA, AMB302#1, bar Domain#2
Protocol: (§1) FGFR3 is composed of three domains, so each domain (FGFR3 Ig domain I, domain II, domain III) is attached with an Fc tag to analyze the FGFR3-binding domain of the discovered antibody, and produced and purified through a mammalian cell protein expression system (FIG. 9C). Analysis of the binding ability of the antibody to the purified domain was performed in the same manner as the ELISA described above. 1 μg/ml of an antigen was coated and treated with the antibody to induce a TMB color reaction. […] However, the epitope of the comparative antibody is included in domain No. 2, which was conducted according to the present invention. In addition, ligands of FGF1 and FGF9, and FGFR3 have been reported to bind to Ig domain II and domain III of FGFR3. Based on this, competition ELISA assay was conducted. […] This supports binding of F309 antibody to the aforementioned FGFR3 Ig domain I (FIG. 9A).
(§2) The epitope domain mapping performed above was also performed on the affinity matured antibody F309 #SSM236 (hereinafter referred to as AMB302 #1.2). […] The antibody was also found to have specific binding ability to human/cyno FGFR3 (FIG. 17).

[2] = target: T2, human FGFR3 IIIb recombinant protein …; experiment: direct-binding ELISA on rhFGFR3-IIIb, 1' screening (row head prints IC50)
Domain#3 [3] = target: T3, Domain#3; experiment: ELISA on Fc-tagged FGFR3 constructs (FGFR3 domain mapping), bar Domain#3
Protocol: (§3) Affinity ELISA was performed to determine the binding ability of the produced antibody (IgG) to the FGFR3 antigen. A 96-well plate (4° C., overnight) was coated with […] of FGFR3 antigen and blocked with 3% skim milk (PBS) (room temperature, 1 hour). Then, the plate was treated with previously serially diluted antibody samples in duplicate and triplicate, and reacted at room temperature for 1 hour. Then, the result was washed with PBST 2 to 3 times, treated with the HRP-conjugated anti-human Fab antibody diluted in skim milk (room temperature, 1 hour), and washed again with PBST, and a color reaction (TMB substrate) was performed. Then, O.D. was measured at 450 nm.
FGFR3 is composed of three domains, so each domain (FGFR3 Ig domain I, domain II, domain III) is attached with an Fc tag to analyze the FGFR3-binding domain of the discovered antibody, and produced and purified through a mammalian cell protein expression system (FIG. 9C). Analysis of the binding ability of the antibody to the purified domain was performed in the same manner as the ELISA described above. 1 μg/ml of an antigen was coated and treated with the antibody to induce a TMB color reaction. […] However, the epitope of the comparative antibody is included in domain No. 2, which was conducted according to the present invention. […]

[4] = target: T2, human FGFR3 IIIb recombinant protein …; experiment: direct-binding ELISA on rhFGFR3-IIIb, 2' screening, plate 1 (row head prints IC50)
[5] = target: T4, monkey FGFR3 recombinant protein …; experiment: SPR, table under the sensorgrams, column KD, row FGFR3 Monkey; unit inferred
[6] = target: T2, human FGFR3 IIIb recombinant protein …; experiment: SPR, table under the sensorgrams, column KD, row FGFR3-IIIb Human; unit inferred
[7] = target: T5, human FGFR3 IIIc recombinant protein …; experiment: SPR, table under the sensorgrams, column KD, row FGFR3-IIIc Human; unit inferred
[8] = target: T2, human FGFR3 IIIb recombinant protein …; experiment: direct-binding ELISA on rhFGFR3-IIIb, 2' screening, plate 2 (row head prints IC50); 2' screening, Plate2
[9] = target: T2, human FGFR3 IIIb recombinant protein …; experiment: direct-binding ELISA on rhFGFR3-IIIb, 1' screening (row head prints IC50); 1' screening
[10] = target: T4, monkey FGFR3 recombinant protein …; experiment: ELISA on cynoFGFR3
Protocol: as §3
(§4) The binding ability of the produced antibody (IgG) to human FGFR3 IIIb (1264-FR-050, R&D), IIIc (766-FR-050, R&D), mouse FGFR3 (9089-FR, R&D), and monkey FGFR3 (90313-C02H, Sino Biological) antigens was determined in the same manner as above.
as §2

[11] = target: T5, human FGFR3 IIIc recombinant protein …; experiment: ELISA on humanFGFR3-IIIc
Protocol: as §3, §4, §2

[12] = target: T6, FGFR3 recombinant protein (isoform not …); experiment: affinity ELISA on hFGFR3, lower left panel
Protocol: as §3
The antigen affinity of the synthesized ADC sample (TOPOI-conjugated ADC) was determined by ELISA and the determination was performed in the same manner as the affinity ELISA performed in the present invention. […] In addition, the high purity physical properties of the prepared ADC were identified through SEC-HPLC analysis.

[13] = target: T1, FGFR3 Ig domain II with Fc tag; experiment: FGFR3 Domain ELISA, AMB302#1.2, bar Domain#2
Protocol: as §1, §2

Domain#3 [14] = target: T3, Domain#3; experiment: FGFR3 Domain ELISA, AMB302#1.2, bar Domain#3
Protocol: as §1, §2

[15] = target: T4, monkey FGFR3 recombinant protein …; experiment: SPR (Biacore), antigen immobilised 92 RU, antibody injected
[16] = target: T5, human FGFR3 IIIc recombinant protein …; experiment: SPR (Biacore), antigen immobilised 74.5 RU, antibody injected
[17] = target: T2, human FGFR3 IIIb recombinant protein …; experiment: SPR (Biacore), antigen immobilised 276.2 RU, antibody injected

Row | binding result [1] | EC50 [2] [nM] | binding result (Domain#3 [3]) | EC50 [4] [nM] | Kd [5] [nM] | Kd [6] [nM] | Kd [7] [nM] | EC50 [8] [nM] | EC50 [9] [nM] | EC50 (read off the curve) [10] [nM] | EC50 (read off the curve) [11] [nM] | EC50 (read off the curve) [12] [nM] | binding result [13] | binding result (Domain#3 [14]) | Kd [15] [nM] | Kd [16] [nM] | Kd [17] [nM] | Binder
1 | no binding | 0.67 | no binding | 80.4 | 32.8 | 10.4 | 11.1 | 67 | – | – | – | – | – | – | – | – | – | F309 (antibody, V domains shown, also called F309 antibody; F309 clone) VH: EVQLLESGGGLVQPGGSLRLSCAASGFTFSSYDMSWVRQAPGKGLEWVSGIYSGDGSIYYADSVKGRFTISRDNSKNTLYLQMNSLRAEDTAVYYCAKDAPTNEMSRFDYWGQGTLVTVSS VL: QSVLTQPPSASGTPGQRVTISCSGSSSNIGNNYVSWYQQLPGTAPKLLIYADSKRPSGVPDRFSGSKSGTSASLAISGLRSEDEADYYCASWDYSLSGYVFGGGTKLTVL
2 | – | – | – | – | – | – | – | – | 2190 | – | – | – | – | – | – | – | – | F309#SSM001 (antibody, V domains shown) VH: EVQLLESGGGLVQPGGSLRLSCAASGFTFSSYDMSWVRQAPGKGLEWVSGIYSGDGSIYYADSVKGRFTISRDNSKNTLYLQMNSLRAEDTAVYYCAKDYPTNEMSRFDYWGQGTLVTVSS VL: QSVLTQPPSASGTPGQRVTISCSGSSSNIGNNYVSWYQQLPGTAPKLLIYADSKRPSGVPDRFSGSKSGTSASLAISGLRSEDEADYYCASWDYSLSGYVFGGGTKLTVL
3 | – | – | – | 0.753 | – | – | – | – | – | ~0.3 | ~0.3 | ~0.4 | no binding | no binding | 0.755 | 0.309 | 0.59 | F309#SSM236 (antibody, V domains shown, also called AMB302 #1.2; AMB302#1.2) VH: EVQLLESGGGLVQPGGSLRLSCAASGFTFSSYDMSWVRQAPGKGLEWVSGIYSGDGSIYYADSVKGRFTISRDNSKNTLYLQMNSLRAEDTAVYYCAKDGPMNEESRFDYWGQGTLVTVSS VL: QSVLTQPPSASGTPGQRVTISCSGSSSNIGNNYVSWYQQLPGTAPKLLIYADSKRPSGVPDRFSGSKSGTSASLAISGLRSEDEADYYCASWDYSLSGYVFGGGTKLTVL
